The labels stand for the following.
B3: HK853, complete cytoplasmic portion (DHp and CA domains), wild type (domain or fragment, Thermotoga maritima)
chain: VENVTESKELERLKRIDRMKTEFIANISHELRTPLTAIKAYAETIYNSLGELDLSTLKEFLEVIIDQSNHLENLLNELLDFSRLERKSLQINREKVDLCDLVESAVNAIKEFASSHNVNVLFESNVPCPVEAYIDPTRIRQVLLNLLNNGVKYSKKDAPDKYVKVILDEKDGGVLIIVEDNGIGIPDHAKDRIFEQFYRVDSSLTYEVPGTGLGLAITKEIVELHGGRIWVESEVGKGSRFFVWIPKDRAGEDNRQDN
notes: Sensor histidine kinase HK853 of Thermotoga maritima, complete cytoplasmic (catalytic) portion with DHp and CA domains; source: E. coli BL21-CodonPlus(DE3)-RIL, purified (70 °C heat step, HisTrap HP, TEV digestion, Superdex 200)
B4: HK853 H260A, complete cytoplasmic portion (domain or fragment, Thermotoga maritima)
chain: VENVTESKELERLKRIDRMKTEFIANISAELRTPLTAIKAYAETIYNSLGELDLSTLKEFLEVIIDQSNHLENLLNELLDFSRLERKSLQINREKVDLCDLVESAVNAIKEFASSHNVNVLFESNVPCPVEAYIDPTRIRQVLLNLLNNGVKYSKKDAPDKYVKVILDEKDGGVLIIVEDNGIGIPDHAKDRIFEQFYRVDSSLTYEVPGTGLGLAITKEIVELHGGRIWVESEVGKGSRFFVWIPKDRAGEDNRQDN
notes: ADP was added for crystallisation; Same limits as m1; source: E. coli BL21-CodonPlus(DE3)-RIL, purified (70 °C heat step, HisTrap HP, TEV digestion, Superdex 200)

Data set [1] addresses B3. The experiment in a line: crystal structure; HK853 (10 mg/ml) and RR468 (7.5 mg/ml) with 4 mM ADP, 30 mM NaF, 5 mM BeSO4, 7 mM MgCl2; sitting drops at 21 °C; 1.8 M (NH4)2SO4, 0.1 M sodium citrate; four structures at pH 5.5, 6.5, 7 and 7.5. Particulars: both partners purified.
In data set [2] the target is B3. Put plainly: crystal structure; HK853 wild type and RR468 D53A with 4 mM ADP; sitting drops at 21 °C; pH 7: 1.8 M (NH4)2SO4, 100 mM sodium citrate; pH 5.3: 1.2 M (NH4)2SO4, 100 mM Bis-Tris; two structures. Particulars: both partners purified.
Data set [3] has as its target B4. The experiment in a line: crystal structure; HK853 H260A and RR468 D53A with 4 mM ADP; sitting drops at 21 °C; pH 7.5: 1.8 M (NH4)2SO4, 100 mM sodium citrate; pH 5.3: 1.2 M (NH4)2SO4, 100 mM Bis-Tris; two structures. Particulars: both partners purified.
Data set [4] concerns the molecule itself. The experiment in a line: crystal structure; HK853 (10 mg/ml) and RR468 (7.5 mg/ml) with 4 mM ADP, 30 mM NaF, 5 mM BeSO4, 7 mM MgCl2; sitting drops at 21 °C; 1.8 M (NH4)2SO4, 0.1 M sodium citrate; four structures at pH 5.5, 6.5, 7 and 7.5.
Data set [5] concerns the molecule itself. The experiment in a line: crystal structure; HK853 H260A and RR468 D53A with 4 mM ADP; sitting drops at 21 °C; pH 7.5: 1.8 M (NH4)2SO4, 100 mM sodium citrate; pH 5.3: 1.2 M (NH4)2SO4, 100 mM Bis-Tris; two structures.

B1: RR468 wild type, bound to the phosphomimetic BeF3- (natural protein, Thermotoga maritima)
chain: MSKKVLLVDDSAVLRKIVSFNLKKEGYEVIEAENGQIALEKLSEFTPDLIVLDIMMPVMDGFTVLKKLQEKEEWKRIPVIVLTAKGGEEDESLALSLGARKVMRKPFSPSQFIEEVKHLLNE
modifications: phosphomimetic BeF3- bound to the phosphoacceptor D53
notes: Response regulator RR468 of Thermotoga maritima; BeF3- was formed in the crystallisation mixture from 30 mM NaF, 5 mM BeSO4 and 7 mM MgCl2; source: E. coli BL21-CodonPlus(DE3)-RIL, purified (70 °C heat step, HisTrap HP, TEV digestion, Superdex 75)
As to B1, the binding result in data set [1] is “binds”.

B2: RR468 D53A (natural protein, Thermotoga maritima)
chain: MSKKVLLVDDSAVLRKIVSFNLKKEGYEVIEAENGQIALEKLSEFTPDLIVLAIMMPVMDGFTVLKKLQEKEEWKRIPVIVLTAKGGEEDESLALSLGARKVMRKPFSPSQFIEEVKHLLNE
notes: Response regulator RR468 of Thermotoga maritima cloned in pET22b, with the phosphoacceptor Asp53 changed to Ala; lacks a Histag; source: E. coli BL21-CodonPlus(DE3)-RIL, purified (70 °C heat step, Mono Q, Superdex 75)
Consider B2, for which the binding result in data set [2] and in data set [3] was “binds” throughout.

Take B3: the binding result in data set [4] is given as “binds”. On to B4, for which, in data set [5], the binding result is reported as “binds”.
